Among the data in US20230055408A1 (JIANGSU HENGRUI MEDICINE, published 2023) are EC50 values, retold here.

Assay [1] has as its target T1, monkey CEA expressed on CHO cell surface (cynomolgus monkey).
T1 construct: also called cynoCEA-CHO; monkey CEA proteins on the cell surface
T1 chain: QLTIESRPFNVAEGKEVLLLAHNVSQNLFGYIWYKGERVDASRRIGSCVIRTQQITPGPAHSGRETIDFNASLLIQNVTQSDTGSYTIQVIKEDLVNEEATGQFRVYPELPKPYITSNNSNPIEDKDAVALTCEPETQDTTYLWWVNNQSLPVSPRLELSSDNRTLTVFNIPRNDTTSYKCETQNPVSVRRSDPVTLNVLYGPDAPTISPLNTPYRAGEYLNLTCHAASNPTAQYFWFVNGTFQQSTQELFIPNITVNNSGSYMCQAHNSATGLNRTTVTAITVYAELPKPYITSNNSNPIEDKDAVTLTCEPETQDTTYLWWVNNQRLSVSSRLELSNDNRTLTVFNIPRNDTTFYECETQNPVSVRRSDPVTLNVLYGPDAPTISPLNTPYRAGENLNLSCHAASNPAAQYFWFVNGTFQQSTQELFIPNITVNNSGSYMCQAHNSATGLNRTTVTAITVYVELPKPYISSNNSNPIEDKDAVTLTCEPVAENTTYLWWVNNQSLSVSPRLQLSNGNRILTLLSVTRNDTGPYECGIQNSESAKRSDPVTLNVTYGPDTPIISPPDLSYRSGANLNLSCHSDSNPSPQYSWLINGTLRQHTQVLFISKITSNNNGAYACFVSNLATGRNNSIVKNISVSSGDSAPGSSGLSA
The assay can be described thus: FACS, cynoCEA-CHO cells. The protocol:
(§1) In order to detect the binding of the antibody to the CEA protein on the cell surface, the binding activity of the antibody was determined by FACS using cells expressing CEA on the cell surface. Cells were harvested and centrifuged at 400 g at 4° C. for 5 min. Pre-cooled PBS containing FBS at final concentration 10% was added, and the mixture was centrifuged at 400 g at 4° C. for 5 min; the procedures were repeated twice. The cells were seeded into a 96-well plate at 10⁵ cells/well, and 100 μL of gradient diluted antibody solution was added to each well. The plate was incubated at 4° C. for 60 min and centrifuged, and the supernatant was removed. 250 μL of pre-cooled PBS containing FBS at final concentration 10% was added to each well to resuspend the cells, and the suspension was centrifuged at 400 g at 4° C. for 5 min, followed by the removal of the supernatant; the procedures were repeated twice. 50 μL of 1:200 diluted secondary antibody Alexa Fluor@488 goat anti-human IgG (H+L) (Lifetechologies, Cat #A11013) was added. […] 250 μL of pre-cooled PBS containing FBS at final concentration 10% was added to each cell to resuspend the cells, and the suspension was centrifuged at 400 g at 4° C. for 5 min; the procedures were repeated twice. 100 μL of pre-cooled PBS was added to each well to resuspend the cells. The plate was analyzed by a flow cytometer (BD, FACSverse) for fluorescence signal values.

The target in assay [2] is T2, human CEA protein on the cell surface (human, UniProt P06731 35-685).
T2 construct: whole, on cells; also called CEACAM-5; CD66e
T2 sequence (looked up): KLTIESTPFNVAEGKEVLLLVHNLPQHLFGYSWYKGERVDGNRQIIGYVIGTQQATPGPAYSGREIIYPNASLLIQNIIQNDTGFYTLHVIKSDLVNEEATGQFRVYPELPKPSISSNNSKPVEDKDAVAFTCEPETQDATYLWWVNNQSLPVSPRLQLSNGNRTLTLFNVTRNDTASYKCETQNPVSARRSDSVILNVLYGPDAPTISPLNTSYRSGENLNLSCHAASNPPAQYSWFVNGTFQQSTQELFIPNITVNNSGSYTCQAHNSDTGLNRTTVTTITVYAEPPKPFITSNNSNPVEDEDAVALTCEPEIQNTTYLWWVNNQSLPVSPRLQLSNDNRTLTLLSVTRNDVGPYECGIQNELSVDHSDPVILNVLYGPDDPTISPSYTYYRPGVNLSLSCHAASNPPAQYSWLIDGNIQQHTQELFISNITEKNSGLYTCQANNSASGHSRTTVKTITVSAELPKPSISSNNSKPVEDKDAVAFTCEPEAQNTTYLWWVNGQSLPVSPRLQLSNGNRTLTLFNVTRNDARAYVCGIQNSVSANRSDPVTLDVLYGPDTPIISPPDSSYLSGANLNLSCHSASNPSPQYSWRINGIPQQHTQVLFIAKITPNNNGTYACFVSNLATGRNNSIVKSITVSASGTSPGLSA
The assay can be described thus: FACS, MKN45 cells. The protocol: as §1
(A flow cytometer gives signals particle by particle.)

B1: Hu47-10 (antibody, human IgG1, kappa, V domains shown)
VH: EVQLVQSGSELKKPGASVKVSCKASGYTFTTYGMSWVKQAPGQGLKWMGWINTYSGVPTYADDFKGRFVFSLDTSVSTAYLQISSLKAEDTAVYYCARRGNYGRWDFDVWGQGTTVTVSS
VL: EIVLTQSPDFQSVTPKEKVTITCSVSSTISSSNLHWYQQKPDQSPKPLIYGTSNLASGVPSRFSGSGSGTDYTLTINSLEAEDAATYYCQQWSIYPLTFGQGTKLEIKR
On to B1, for which the EC50 (usually the concentration at which the effect is half-maximal) in assay [1] is 0.27 nM; in assay [2] it was 2.27 nM.

B2: Hu47-6 (antibody, human IgG1, kappa, V domains shown)
VH: EVQLVQSGSELKKPGASVKVSCKASGYTFTTYGMSWVRQAPGQGLKWMGWINTYSGVPTYADDFKGRFVFSLDTSVSTAYLQISSLKAEDTAVYYCARRGNYGRWDFDVWGQGTTVTVSS
VL: EIVLTQSPDFQSVTPKEKVTITCSVSSTISSSNLHWYQQKPDQSPKPLIYGTSNLASGVPSRFSGSGSGTDYTLTINSLEAEDAATYYCQQWSIYPLTFGQGTKLEIKR
Regarding B2, the EC50 in assay [1] was 0.3 nM; in assay [2], 2.5 nM.

B3: Hu103-20 (antibody, human IgG1, lambda)
heavy: not shown
light: ELVVTQSPSASASLGASVKLTCTLSSQHSTYTIEWYQQQPEKGPRYVMELKKDGSHSTGDGIPDRFSGSSSGAERYLTISSLQSEDEADYYCGVGNTIKEQFVYVFGGGTKLTVLGQPKANPTVTLFPPSSEELQANKATLVCLISDFYPGAVTVAWKADGSPVKAGVETTKPSKQSNNKYAASSYLSLTPEQWKSHRSYSCQVTHEGSTVEKTVAPTECS
Turning to B3, the EC50 in assay [1] turned out to be 0.98 nM; in assay [2], 2.19 nM.

B4: Hu103-23 (antibody, human IgG1, lambda)
heavy: not shown
light: ELVVTQSPSASASLGASVKLTCTLSSQHSTYTIEWYQQQPEKPPRYVMELKKDGSHSTGDGIPDRFSGSSSGADRYLTISSLQSEDEADYICGVGNTIKEQFVYVFGGGTKLTVLGQPKANPTVTLFPPSSEELQANKATLVCLISDFYPGAVTVAWKADGSPVKAGVETTKPSKQSNNKYAASSYLSLTPEQWKSHRSYSCQVTHEGSTVEKTVAPTECS
With B4, the EC50 is 0.93 nM in assay [1] and 2.9 nM in assay [2].

B5: Hu103-22 (antibody, human IgG1, lambda)
heavy: not shown
light: ELVVTQSPSASASLGASVKLTCTLSSQHSTYTIEWYQQQPEKPPRYVMELKKDGSHSTGDGIPDRFSGSSSGAERYLTISSLQSEDEADYICGVGNTIKEQFVYVFGGGTKLTVLGQPKANPTVTLFPPSSEELQANKATLVCLISDFYPGAVTVAWKADGSPVKAGVETTKPSKQSNNKYAASSYLSLTPEQWKSHRSYSCQVTHEGSTVEKTVAPTECS
Consider B5, for which the EC50 turned out to be 1.02 nM in assay [1] and 3.64 nM in assay [2].

B6: Hu103-21 (antibody, human IgG1, lambda)
heavy: not shown
light: ELVLTQSPSASASLGASVKLTCTLSSQHSTYTIEWYQQQPEKPPRYVMELKKDGSHSTGDGIPDRFSGSSSGAERYLTISSLQSEDEADYICGVGNTIKEQFVYVFGGGTKLTVLGQPKANPTVTLFPPSSEELQANKATLVCLISDFYPGAVTVAWKADGSPVKAGVETTKPSKQSNNKYAASSYLSLTPEQWKSHRSYSCQVTHEGSTVEKTVAPTECS
Consider B6, for which the EC50 is 1.17 nM in assay [1] and 1.34 nM in assay [2].

B7: Hu67-7 (antibody, V domains shown)
VH: EVQLVQSGAEVKKPGESLKISCKGSGYSFTDYHMNWVRQMPGKGLEWMGDINPDIGGTSYNQNFKGQVTISADKSISTAYLQWSSLKASDTAMYYCARWDFDSFANWGQGTLVTVSS
VL: EIVMTQSPATLSVSPGERATLSCRASESVSIIGTNLIHWYQQKPGQAPRLLIYHASNLETGIPARFSGSGSGTEFTLTISSLQSEDFAVYYCLQSRKIPYTFGGGTKVEIKR
Take B7: the EC50 in assay [1] was determined as 7.2 nM; in assay [2], 3.88 nM.

B8: Hu67-9 (antibody, human IgG1, kappa, V domains shown)
VH: EVQLVQSGAEVKKPGESLKISCKGSGYSFTDYHMNWVRQMPGKGLEWMGDINPDIGGTSYNQNFKGQVTISADKSISTAYLQWSSLKASDTAMYYCARWDFDSFANWGQGTLVTVSS
VL: DIQMTQSPSSLSASVGDRVTITCRASESVSIIGTNLIHWYQQKPGKAPKLLIYHASNLETGVPSRFSGSGSGTDFTLTISSLQPEDFATYYCLQSRKIPYTFGGGTKVEIKR
Take B8: the figures for the EC50 in assay [1] and in assay [2] were 3.72 nM and 3.75 nM, respectively.

B9: Hu67-10 (antibody, human IgG1, kappa, V domains shown)
VH: EVQLVQSGAEVKKPGESLKISCKGSGYSFTDYHMNWVRQMPGKGLEWMGDINPDIGGTSYNQNFKGQVTISADKSISTAYLQWSSLKASDTAMYYCARWDFDSFANWGQGTLVTVSS
VL: DIVMTQSPSSLSASVGDRVTITCRASESVSIIGTNLIHWYQQKPGKPPKLLIYHASNLETGVPSRFSGSGSGTDFTLTISSLQPEDFATYYCLQSRKIPYTFGGGTKVEIKR
As to B9, the EC50 worked out at 5.37 nM in assay [1] and 3.19 nM in assay [2].

B10: Hu67-11 (antibody, human IgG1, kappa, V domains shown)
VH: EVQLVQSGAEVKKPGESLKISCKGSGYSFTDYHMNWVKQMPGKGLEWMGDINPDIGGTSYNQNFKGKVTISVDKSISTAYLQWSSLKASDTAMYYCARWDFDSFANWGQGTLVTVSS
VL: DIVMTQSPDSLAVSLGERATINCRASESVSIIGTNLIHWYQQKPGQPPKLLIYHASNLETGVPDRFSGSGSGTDFTLTISSLQAEDVAVYYCLQSRKIPYTFGGGTKVEIKR
As to B10, the concentration giving a half-maximal response (EC50) came out at 4.66 nM in assay [1] and 2.26 nM in assay [2].

B11: Hu67-12 (antibody, V domains shown)
VH: EVQLVQSGAEVKKPGESLKISCKGSGYSFTDYHMNWVKQMPGKGLEWMGDINPDIGGTSYNQNFKGKVTISVDKSISTAYLQWSSLKASDTAMYYCARWDFDSFANWGQGTLVTVSS
VL: EIVMTQSPATLSVSPGERATLSCRASESVSIIGTNLIHWYQQKPGQAPRLLIYHASNLETGIPARFSGSGSGTEFTLTISSLQSEDFAVYYCLQSRKIPYTFGGGTKVEIKR
For the molecule B11, the figures for the half-maximal effective concentration (EC50) in assay [1] and in assay [2] were 5.31 nM and 3.2 nM, respectively.

B12: Hu67-5 (antibody, human IgG1, kappa, V domains shown)
VH: EVQLVQSGAEVKKPGASVKVSCKASGYTFTDYHMNWVRQAPGQRLEWMGDINPDIGGTSYNQNFKGRVTITRDTSASTAYMELSSLRSEDTAVYYCARWDFDSFANWGQGTLVTVSS
VL: DIVMTQSPSSLSASVGDRVTITCRASESVSIIGTNLIHWYQQKPGKPPKLLIYHASNLETGVPSRFSGSGSGTDFTLTISSLQPEDFATYYCLQSRKIPYTFGGGTKVEIKR
For the molecule B12, the EC50 in assay [1] is 3.5 nM; in assay [2], 2.86 nM.

B13: Hu67-1 (antibody, human IgG1, kappa, V domains shown)
VH: EVQLVQSGAEVKKPGASVKVSCKASGYTFTDYHMNWVRQAPGQRLEWMGDINPDIGGTSYNQNFKGRVTITRDTSASTAYMELSSLRSEDTAVYYCARWDFDSFANWGQGTLVTVSS
VL: DIVMTQSPDSLAVSLGERATINCRASESVSIIGTNLIHWYQQKPGQPPKLLIYHASNLETGVPDRFSGSGSGTDFTLTISSLQAEDVAVYYCLQSRKIPYTFGGGTKVEIKR
As for B13, the values for the EC50 in assay [1] and in assay [2] were 4.57 nM and 2.46 nM, respectively.

B14: Hu67-4 (antibody, human IgG1, kappa, V domains shown)
VH: EVQLVQSGAEVKKPGASVKVSCKASGYTFTDYHMNWVRQAPGQRLEWMGDINPDIGGTSYNQNFKGRVTITRDTSASTAYMELSSLRSEDTAVYYCARWDFDSFANWGQGTLVTVSS
VL: DIQMTQSPSSLSASVGDRVTITCRASESVSIIGTNLIHWYQQKPGKAPKLLIYHASNLETGVPSRFSGSGSGTDFTLTISSLQPEDFATYYCLQSRKIPYTFGGGTKVEIKR
As to B14, the EC50 in assay [1] was found to be 3.06 nM; in assay [2], 3.25 nM.
